10 molecules from patent US20140329742A1 (GlaxoSmithKline, published 2014) can be followed below.

Sequences and labels used below:
T1: human Neuropeptide Y receptor type 2 (human, UniProt P49146 1-381)
T1 sequence (looked up): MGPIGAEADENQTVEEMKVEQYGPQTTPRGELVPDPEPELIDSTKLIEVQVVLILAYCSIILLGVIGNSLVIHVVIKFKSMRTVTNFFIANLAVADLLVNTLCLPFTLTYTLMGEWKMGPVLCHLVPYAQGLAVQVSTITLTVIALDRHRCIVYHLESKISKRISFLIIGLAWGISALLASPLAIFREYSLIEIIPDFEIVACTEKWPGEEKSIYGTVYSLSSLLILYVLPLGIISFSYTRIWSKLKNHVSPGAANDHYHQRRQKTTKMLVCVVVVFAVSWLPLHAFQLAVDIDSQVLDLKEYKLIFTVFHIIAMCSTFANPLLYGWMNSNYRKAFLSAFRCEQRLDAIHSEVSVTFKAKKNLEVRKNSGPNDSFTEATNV

Where no end group is shown, it is not given here.

The first assay has as its target T1, human Neuropeptide Y receptor type 2. Put plainly: cell-based or functional assay.
On to IKPEAPLSKQLEEEAVRYYASLRHYLNLVTRQRY-NH2 [Peptide 2], for which the “hNPY Y2 pEC50 (melanophore assay)” value amounted to 8.6.

With PKPVAPGCDASPAELNRQYSDLRNYWNLVTRQRY-NH2 [Peptide 15], the “hNPY Y2 pEC50 (melanophore assay)” value is 8.9.

Regarding PKPEAPGCDASPEEWNRYYASLRKYLNWVTRQNY-NH2 [Peptide 1], the “hNPY Y2 pEC50 (melanophore assay)” value stood at 7.9.

For PKPEAPGEDASPKEWNRYYASLRKYLNWVTRQRY-NH2 [Peptide 3], the “hNPY Y2 pEC50 (melanophore assay)” value is 9.2.

Regarding PKPEAPLSKQLEEEAVRYYASLRHYLNLVTRQRY-NH2 [Peptide 21], the “hNPY Y2 pEC50 (melanophore assay)” value is 8.7.

As for PKPEAPGCDASPEEWNRYYASLRKYLNWVTRQHY-NH2 [Peptide 14], the “hNPY Y2 pEC50 (melanophore assay)” value is 8.2.

Consider IKPPYPGCDASPEEQNKYYASLRAYWNLVTRQRY-NH2 [Peptide 8], for which the “hNPY Y2 pEC50 (melanophore assay)” value is 9.3.

A further assay shares this target. Kind of assay: cell-based or functional assay. This is another data set of the same source.
Consider PKPEAPGKDASPEELNRYYASLRKYLNWVTRQRY-NH2 [Example 31], for which the “hNPY Y2 pEC50 (melanophore assay)” value came out at 9.8.

Take PKPEHPGKDASPEEWNRYYASLRKYLNWVTRQRY-NH2 [Example 25]: the “hNPY Y2 pEC50 (melanophore assay)” value stood at 9.6.

With PKPEAPGKDASPEELNRYYASLRKYLNWLTRQRY-NH2 [Example 2], the “hNPY Y2 pEC50 (melanophore assay)” value came out at 9.8.
